Reference: patent publication US20210147546A1 (VRIJE UNIVERSITEIT BRUSSEL, published 2021)

Experiments:
[1] = target: T1, human PD-L1 expressed on cells (lentivirally transduced HEK293T, MCF7 and 624-MEL cells; endogenous on moDCs) (human, UniProt Q9NZQ7 19-290); test: flow cytometry, fold increase in mean fluorescence intensity of binding to human PD-L1 compared to control sdAb
T1 construct: whole, on cells; also called PD-L1+ MCF7

[2] = target: T2, recombinant His-tagged human PD-L1 protein (SINO Biologicals, 10084-H08H) (human, UniProt Q9NZQ7 19-238); test: SPR (Biacore T200), purified sdAb over immobilized recombinant human PD-L1
T2 construct: Bought protein; also called immobilized recombinant PD-L1 protein; not shown: His-tag
T2 sequence (Q9NZQ7 19-238 limits assumed): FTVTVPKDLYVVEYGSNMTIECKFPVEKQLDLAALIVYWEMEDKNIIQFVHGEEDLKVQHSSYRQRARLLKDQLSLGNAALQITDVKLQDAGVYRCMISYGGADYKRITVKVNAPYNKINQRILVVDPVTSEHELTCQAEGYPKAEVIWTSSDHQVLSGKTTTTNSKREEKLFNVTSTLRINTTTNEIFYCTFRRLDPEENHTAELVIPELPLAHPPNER
Procedure: (§1) All measurements were performed on a Biacore T200 device (GE Healtcare) at 25° C. and using Hepes-buffered saline (0.01M HEPES, pH 7.4; 0.15M NaCl, 3 mM EDTA, 0.005% Tween20) as running buffer. All recombinant proteins were dissolved to 10 μg/mL in 10 mM Na-acetate (pH 5.0) for immobilization on a CM5 sensor chip using linkage chemistry with 1-(3-(dimethylamino)propyl)-3-ethylcarbodiimide (EDC) and N-hydroxy-succinimide ([…]). Unreacted EDC-NHS linkers were blocked with 1M ethanolamine-HCl. For all measurements, SPR signals in the flow cell with immobilized protein were subtracted with those in a flow cell that underwent the same manipulations but where recombinant protein was omitted, to obtain specific binding signals (response units, RU). Affinity for human PD-L1 of the purified sdAbs was evaluated on immobilized PD-L1 protein.

[3] = target: T3, recombinant Fc-tagged human PD-L1 (R&D Systems, 156-B7) (human, UniProt Q9NZQ7 19-239); test: SPR competition: sdAb mixed with soluble recombinant human PD-L1, run over immobilized human PD-1 (FIG. 16B)
T3 construct: Bought protein; Also the immunogen for the alpacas; also called PD-L1-Fc; Fc-PD-L1; not shown: Fc tag
T3 sequence (Q9NZQ7 19-239 limits assumed): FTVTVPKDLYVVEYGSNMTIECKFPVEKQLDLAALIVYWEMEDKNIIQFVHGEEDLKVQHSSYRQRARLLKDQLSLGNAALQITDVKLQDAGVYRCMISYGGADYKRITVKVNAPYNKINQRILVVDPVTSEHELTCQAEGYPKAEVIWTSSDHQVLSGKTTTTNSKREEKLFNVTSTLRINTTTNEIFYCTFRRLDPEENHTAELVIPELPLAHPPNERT
Source text: (§2) To evaluate the sdAb's IC₅₀, the sdAb concentration at which the relative response of the interaction between PD-1 and PD-L1 is inhibited by half, Fc-PD-1 protein was immobilized on a CM5 chip. […] The maximum relative response values were plotted in function of competing sdAb concentration and analyzed with a “Log inhibitor versus response (variable lope)” model in Prism to calculate IC₅₀ values.

[4] = target: T3, recombinant Fc-tagged human PD-L1 (R&D …); test: SPR competition: sdAb K2 (0,78 to 1000 nM) mixed with 25 nM PD-L1-Fc and run over immobilized PD-1 Fc. The binder is named by legend paragraph 20, not on the sheet. The text gives 9.5 nM for this figure.
Procedure: as §1, §2

[5] = target: T3, recombinant Fc-tagged human PD-L1 (R&D …); test: SPR competition: sdAb mixed with 25 nM PD-L1-Fc, run over immobilized PD-1-Fc (FIG. 5A)
Procedure: as §1, §2

T1 sequence (Q9NZQ7 19-290): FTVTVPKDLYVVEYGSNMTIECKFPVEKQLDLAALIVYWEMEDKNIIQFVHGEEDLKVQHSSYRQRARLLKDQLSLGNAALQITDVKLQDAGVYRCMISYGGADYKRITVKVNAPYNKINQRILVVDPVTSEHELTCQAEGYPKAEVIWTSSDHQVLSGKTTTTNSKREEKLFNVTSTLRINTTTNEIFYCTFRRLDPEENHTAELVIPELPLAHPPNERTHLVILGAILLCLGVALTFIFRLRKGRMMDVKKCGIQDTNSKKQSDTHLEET

Binder	MFI PD-L1 binding (fold increase) [1]	Kd [2]	IC50 [3]	IC50 [4]	IC50 [5]
sdAb K4 (human PD-L1-specific single domain antibody, C-terminal HIS-tag) (VHH) VHH: QVQLQESGGGLVQPGGSLRLSCAASGFTFSSFAMSWVRQVPGRTLEWVSDINTGGDSTDYANSVKGRFTISRDNAKNTLYLQMNSLKPDDTAVYYCANVPKELVFSFASWGRGTQVTVSS	6.9 fold	4.5 nM			
sdAb K3 (human PD-L1-specific single domain antibody, C-terminal HIS-tag) (VHH, also called K3 (huPDL1 nanobody)) VHH: QVQLQESGGGSVQPGGSLRLSCEASGFTFSSYAMSWVRQAPGEGLEWVSDINTGGDNTDYAGSVKGRFTISRDNAKNTLYLQMDSLKPEDTAKYYCANVPKELVHSFNSWGQGTQVTVSS	23.4 fold	3.5 nM			
sdAb K2 (human PD-L1-specific single domain antibody, C-terminal HIS-tag) (VHH, also called anti-hPD-L1 sdAb K2; K2 (huPDL1 nanobody)) VHH: QVQLQESGGGLVQPGGSLRLSCAASGFTFSSFAMSWVRQAPGKGLEWVSDIDTTGRTTDYADSVKGRFTISRDNAENTLYLQMNDLKPEDTAVYYCANVPKELVLSFGSWGPGTQVTVSS	22.8 fold	5.2 nM	8.5 nM	10 nM	9.5 nM
